Assay results taken from PMC7954794, “Protein context shapes the specificity of SH3 domain-mediated interactions in vivo” (Nature Communications, 2021).

B1: BBC1: yeast SH3-containing protein; SH3-deleted or knockout strain (protein, UniProt P47068 1-1157, looked up)
Myosin tail …: MSEPEVPFKVVAQFPYKSDYEDDLNFEKDQEIIVTSVEDAEWYFGEYQDSNGDVIEGIFPKSFVAVQGSEVGKEAESSPNTGSTEQRTIQPEVEQKDLPEPISPETKKETLSGPVPVPAATVPVPAATVPVPAATAVSAQVQHDSSSGNGERKVPMDSPKLKARLSMFNQDITEQVPLPKSTHLDLENIPVKKTIVADAPKYYVPPGIPTNDTSNLERKKSLKENEKKIVPEPINRAQVESGRIETENDQLKKDLPQMSLKERIALLQEQQRLQAAREEELLRKKAKLEQEHERSAVNKNEPYTETEEAEENEKTEPKPEFTPETEHNEEPQMELLAHKEITKTSREADEGTNDIEKEQFLDEYTKENQKVEESQADEARGENVAEESEIGYGHEDREGDNDEEKEEEDSEENRRAALRERMAKLSGASRFGAPVGFNPFGMASGVGNKPSEEPKKKQHKEKEEEEPEQLQELPRAIPVMPFVDPSSNPFFRKSNLSEKNQPTETKTLDPHATTEHEQKQEHGTHAYHNLAAVDNAHPEYSDHDSDEDTDDHEFEDANDGLRKHSMVEQAFQIGNNESENVNSGEKIYPQEPPISHRTAEVSHDIENSSQNTTGNVLPVSSPQTRVARNGSINSLTKSISGENRRKSINEYHDTVSTNSSALTETAQDISMAAPAAPVLSKVSHPEDKVPPHPVPSAPSAPPVPSAPSVPSAPPVPPAPPALSAPSVPPVPPVPPVSSAPPALSAPSIPPVPPTPPAPPAPPAPLALPKHNEVEEHVKSSAPLPPVSEEYHPMPNTAPPLPRAPPVPPATFEFDSEPTATHSHTAPSPPPHQNVTASTPSMMSTQQRVPTSVLSGAEKESRTLPPHVPSLTNRPVDSFHESDTTPKVASIRRSTTHDVGEISNNVKIEFNAQERWWINKSAPPAISNLKLNFLMEIDDHFISKRLHQKWVVRDFYFLFENYSQLRFSLTFNSTSPEKTVTTLQERFPSPVETQSARILDEYAQRFNAKVVEKSHSLINSHIGAKNFVSQIVSEFKDEVIQPIGARTFGATILSYKPEEGIEQLMKSLQKIKPGDILVIRKAKFEAHKKIGKNEIINVGMDSAAPYSSVVTDYDFTKNKFRVIENHEGKIIQNSYKLSHMKSGKLKVFRIVARGYVGW
B2: WT (protein, UniProt P15891 2-592, looked up)
Actin-binding protein: ALEPIDYTTHSREIDAEYLKIVRGSDPDTTWLIISPNAKKEYEPESTGSSFHDFLQLFDETKVQYGLARVSPPGSDVEKIIIIGWCPDSAPLKTRASFAANFAAVANNLFKGYHVQVTARDEDDLDENELLMKISNAAGARYSIQTSSKQQGKASTPPVKKSFTPSKSPAPVSKKEPVKTPSPAPAAKISSRVNDNNDDDDWNEPELKERDFDQAPLKPNQSSYKPIGKIDLQKVIAEEKAKEDPRLVQKPTAAGSKIDPSSDIANLKNESKLKRDSEFNSFLGTTKPPSMTESSLKNDDDKVIKGFRNEKSPAQLWAERKAKQNSGNAETKAEAPKPEVPEDEPEGEPDVKDLKSKFEGLAASEKEEEEMENKFAPPPKKSEPTIISPKPFSKPQEPVKAEEAEQPKTDYKKIGNPLPGMHIEADNEEEPEENDDDWDDDEDEAAQPPLPSRNVASGAPVQKEEPEQEEIAPSLPSRNSIPAPKQEEAPEQAPEEEIEEEAEEAAPQLPSRSSAAPPPPPRRATPEKKPKENPWATAEYDYDAAEDNELTFVENDKIINIEFVDDDWWLGELEKDGSKGLFPSNYVSLGN

Experiments:
Abp1 (1xFLAG) = assay: Western blot expression level of Abp1 SH3-swapped baits (Fig. S2A-B); format: cell-based, Saccharomyces cerevisiae; parameters: Flag (2 bands): unit not given here; conditions: sheet FigS2A-B; for Ratio Swap/WT Flag: Flag signal relative to Abp1 WT (Abp1-1 to Abp1-4 = 1); for Flag (2 bands): Western blot Flag signal (2 bands), Abp1 WT, SH3-deleted or SH3-swapped
In short: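 Yeast expressing DHFR F[1,2]-FLAG-tagged baits grown in synthetic complete medium at 30 °C to OD600 ~1.0, lysed with glass beads in Tris pH 7.4/150 mM NaCl/1% Triton X-100. Baits immunoprecipitated on FLAG-M2 beads 120 min at 4 °C, resolved on 10% SDS-PAGE, probed with anti-FLAG HRP (ECL), signals quantified by imager.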

Hua2 = assay: Deep mutational scanning of Abp1 SH3, Abp1-Hua2 DHFR-PCA (DMS score); format: cell-based, Saccharomyces cerevisiae; conditions: Abp1-Hua2 DHFR-PCA; WT = 0; Fig. S3C-D
In short: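 Yeast, genomic ABP1 SH3 single-codon mutant pool (58 positions, NNN) × DHFR F[3] prey; diploid selection, then 2 cycles PCA selection medium, 72 h, 30 °C each. Readout: Illumina sequencing of SH3 locus vs. unselected diploid reference (S2). Biological duplicates.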

| Molecule | Ratio Swap/WT Flag (Abp1 (1xFLAG)) | Flag (2 bands) (Abp1 (1xFLAG)) | DMS score Hua2 (Hua2) |
| --- | --- | --- | --- |
| B1 | 0.7943 | 76893 | – |
| B2 | 0.6226 | 60270 | 0 |
